In the supplement of paper PMC9112550, “Optimization of the antimicrobial peptide Bac7 by deep mutational scanning” (BMC Biology, 2022):

System: Escherichia coli TOP10
Test: shrunken log2 fold change of peptide-encoding DNA abundance (4.5 h post-induction vs induction); higher = less antimicrobial activity (less host growth inhibition)
Settings: time post-induction: 4.5 h; library: site-saturation at positions 5, 18, 19, 20
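Note: peptides expressed intracellularly from a pBAD plasmid library in pooled LB shake-flask culture, induced with 0.3% L-arabinose, DNA abundance read by NGS, three biological replicates, DESeq2 with apeglm shrinkage.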

| Sequence | shrunken log2 fold change |
| --- | --- |
| RRIRKRPPRLPRPRPRPPAYPRP | 0.417 |
| RRIRSRPPRLPRPRPRPTHKPRP | 0.202 |
| RRIRVRPPRLPRPRPRPQPAPRP | 0.0494 |
| RRIRGRPPRLPRPRPRPVRPPRP | 0.994 |
| RRIRERPPRLPRPRPRPHTQPRP | -0.362 |
| RRIRPRPPRLPRPRPRPFEQPRP | -0.281 |
| RRIRERPPRLPRPRPRPGGLPRP | -0.00977 |
| RRIRHRPPRLPRPRPRPLLDPRP | -0.117 |
| RRIRQRPPRLPRPRPRPPQDPRP | 1.1 |
| RRIRCRPPRLPRPRPRPKMFPRP | -0.265 |
| RRIRDRPPRLPRPRPRPMRSPRP | -0.00884 |
| RRIRMRPPRLPRPRPRPDTTPRP | 0.536 |
| RRIRRRPPRLPRPRPRPYCYPRP | -0.101 |
| RRIRERPPRLPRPRPRPIQTPRP | 0.0703 |
| RRIRIRPPRLPRPRPRPESCPRP | -0.0796 |
| RRIRRRPPRLPRPRPRPNVFPRP | 0.426 |
| RRIRRRPPRLPRPRPRPYFPPRP | 0.31 |
| RRIRQRPPRLPRPRPRPTWWPRP | 0.314 |
| RRIRDRPPRLPRPRPRPRNGPRP | 0.0517 |
| RRIRNRPPRLPRPRPRPNFHPRP | -0.048 |
| RRIRSRPPRLPRPRPRPFCFPRP | -0.069 |
| RRIRWRPPRLPRPRPRPCSVPRP | 0.0151 |
| RRIRVRPPRLPRPRPRPRYSPRP | -0.911 |
| RRIRVRPPRLPRPRPRPYQKPRP | -0.0384 |
| RRIRVRPPRLPRPRPRPAVLPRP | 1.75 |

| Sequence | shrunken log2 fold change |
| --- | --- |
| RRIRFRPPRLPRPRPRPNKDPRP | 0.539 |
| RRIRKRPPRLPRPRPRPSKYPRP | -0.00772 |
| RRIRGRPPRLPRPRPRPNYQPRP | -0.173 |
| RRIRLRPPRLPRPRPRPDWEPRP | 0.0332 |
| RRIRYRPPRLPRPRPRPAQEPRP | 0.075 |
| RRIRFRPPRLPRPRPRPTAQPRP | -0.00528 |
| RRIRNRPPRLPRPRPRPPDGPRP | 0.313 |
| RRIRPRPPRLPRPRPRPGKWPRP | 0.118 |
| RRIRKRPPRLPRPRPRPPIDPRP | 0.185 |
| RRIRMRPPRLPRPRPRPMCDPRP | 0.709 |
| RRIRCRPPRLPRPRPRPLVSPRP | -0.245 |
| RRIRPRPPRLPRPRPRPQMVPRP | -0.491 |
| RRIRGRPPRLPRPRPRPGLGPRP | 1.67 |
| RRIRPRPPRLPRPRPRPFFVPRP | 0.064 |
| RRIRLRPPRLPRPRPRPFAIPRP | 0.0494 |
| RRIRDRPPRLPRPRPRPCCRPRP | -0.197 |
| RRIRTRPPRLPRPRPRPRMPPRP | 0.199 |
| RRIRERPPRLPRPRPRPQWTPRP | -0.0833 |
| RRIRFRPPRLPRPRPRPSHEPRP | 0.204 |
| RRIRIRPPRLPRPRPRPQDGPRP | 0.0409 |
| RRIRERPPRLPRPRPRPGPAPRP | 0.439 |
| RRIRNRPPRLPRPRPRPRAQPRP | 0.188 |
| RRIRGRPPRLPRPRPRPDPYPRP | -0.0305 |
| RRIRNRPPRLPRPRPRPYQFPRP | -0.225 |
| RRIRTRPPRLPRPRPRPFGNPRP | 0.101 |

| Sequence | shrunken log2 fold change |
| --- | --- |
| RRIRYRPPRLPRPRPRPPYKPRP | -0.23 |
| RRIRFRPPRLPRPRPRPKRPPRP | 0.755 |
| RRIRCRPPRLPRPRPRPGPTPRP | 0.848 |
| RRIRVRPPRLPRPRPRPFCEPRP | -0.197 |
| RRIRLRPPRLPRPRPRPFWEPRP | 0.117 |
| RRIRRRPPRLPRPRPRPDENPRP | 0.118 |
| RRIRDRPPRLPRPRPRPASMPRP | 0.483 |
| RRIRFRPPRLPRPRPRPALTPRP | 0.248 |
| RRIRFRPPRLPRPRPRPHEFPRP | -0.0308 |
| RRIRFRPPRLPRPRPRPSMVPRP | -0.509 |
| RRIRHRPPRLPRPRPRPMYSPRP | -0.263 |
| RRIRDRPPRLPRPRPRPLWWPRP | 0.721 |
| RRIRARPPRLPRPRPRPCHVPRP | -0.0999 |
| RRIRVRPPRLPRPRPRPHEGPRP | -0.0348 |
| RRIRQRPPRLPRPRPRPECGPRP | 0.238 |
| RRIRKRPPRLPRPRPRPRGQPRP | 0.648 |
| RRIRCRPPRLPRPRPRPKIKPRP | -0.287 |
| RRIRIRPPRLPRPRPRPEPSPRP | 3.27 |
| RRIRERPPRLPRPRPRPPFQPRP | 0.016 |
| RRIRRRPPRLPRPRPRPPTPPRP | 0.769 |
| RRIRIRPPRLPRPRPRPNHPPRP | -0.469 |
| RRIRHRPPRLPRPRPRPLMFPRP | -0.236 |
| RRIRMRPPRLPRPRPRPHVCPRP | -0.107 |
| RRIRRRPPRLPRPRPRPERNPRP | -0.085 |
| RRIRVRPPRLPRPRPRPQPFPRP | -0.0258 |

| Sequence | shrunken log2 fold change |
| --- | --- |
| RRIRKRPPRLPRPRPRPIIEPRP | -0.0922 |
| RRIRIRPPRLPRPRPRPLTPPRP | -0.284 |
| RRIRMRPPRLPRPRPRPYHEPRP | -0.391 |
| RRIRGRPPRLPRPRPRPYDNPRP | -0.183 |
| RRIRKRPPRLPRPRPRPNLTPRP | -0.112 |
| RRIRYRPPRLPRPRPRPNCTPRP | -0.126 |
| RRIRKRPPRLPRPRPRPTFCPRP | 0.193 |
| RRIRGRPPRLPRPRPRPEKLPRP | 0.844 |
| RRIRQRPPRLPRPRPRPPLQPRP | 0.218 |
| RRIRPRPPRLPRPRPRPAICPRP | 0.0446 |
| RRIRMRPPRLPRPRPRPDDKPRP | 1.43 |
| RRIRRRPPRLPRPRPRPGEIPRP | 0.321 |
| RRIRARPPRLPRPRPRPTTQPRP | 0.584 |
| RRIRGRPPRLPRPRPRPPLCPRP | 0.616 |
| RRIRGRPPRLPRPRPRPVYRPRP | 0.15 |
| RRIRSRPPRLPRPRPRPGNVPRP | -0.0126 |
| RRIRCRPPRLPRPRPRPHDMPRP | -0.234 |
| RRIRTRPPRLPRPRPRPQICPRP | 0.13 |
| RRIRHRPPRLPRPRPRPRWFPRP | 0.161 |
| RRIRRRPPRLPRPRPRPYQYPRP | -0.0327 |
| RRIRERPPRLPRPRPRPYKSPRP | -0.0824 |
| RRIRLRPPRLPRPRPRPHIVPRP | -0.105 |
| RRIRSRPPRLPRPRPRPWLPPRP | 0.0131 |
| RRIRGRPPRLPRPRPRPIKHPRP | 0.171 |
| RRIRVRPPRLPRPRPRPTGTPRP | 0.699 |

| Sequence | shrunken log2 fold change |
| --- | --- |
| RRIRYRPPRLPRPRPRPIYGPRP | -0.428 |
| RRIRARPPRLPRPRPRPNWFPRP | 0.0236 |
| RRIRKRPPRLPRPRPRPDLHPRP | -0.0392 |
| RRIRIRPPRLPRPRPRPWHGPRP | -0.0996 |
| RRIRFRPPRLPRPRPRPSSRPRP | -0.273 |
| RRIRIRPPRLPRPRPRPVCNPRP | -0.52 |
| RRIRVRPPRLPRPRPRPDVEPRP | 0.372 |
| RRIRQRPPRLPRPRPRPWAVPRP | 0.066 |
| RRIRVRPPRLPRPRPRPPVTPRP | -0.0902 |
| RRIRGRPPRLPRPRPRPCKTPRP | 0.0121 |
| RRIRNRPPRLPRPRPRPMNQPRP | -0.123 |
| RRIRWRPPRLPRPRPRPKASPRP | -0.00939 |
| RRIRTRPPRLPRPRPRPSGDPRP | -0.221 |
| RRIRIRPPRLPRPRPRPKRLPRP | 0.181 |
| RRIRGRPPRLPRPRPRPRENPRP | 0.978 |
| RRIRFRPPRLPRPRPRPWQAPRP | 0.0155 |
| RRIRWRPPRLPRPRPRPGAPPRP | 0.641 |
| RRIRGRPPRLPRPRPRPDWQPRP | 0.336 |
| RRIRSRPPRLPRPRPRPYQQPRP | -2.39 |
| RRIRMRPPRLPRPRPRPNYNPRP | -0.678 |
| RRIRFRPPRLPRPRPRPDEPPRP | 0.248 |
| RRIRDRPPRLPRPRPRPSTLPRP | -0.267 |
| RRIRGRPPRLPRPRPRPQECPRP | 0.226 |
| RRIRQRPPRLPRPRPRPVMSPRP | -0.215 |
| RRIRARPPRLPRPRPRPMFDPRP | -0.101 |
